T1: human B7-H3 variant 1 (human, UniProt Q5ZPR3 27-534)
T1 sequence: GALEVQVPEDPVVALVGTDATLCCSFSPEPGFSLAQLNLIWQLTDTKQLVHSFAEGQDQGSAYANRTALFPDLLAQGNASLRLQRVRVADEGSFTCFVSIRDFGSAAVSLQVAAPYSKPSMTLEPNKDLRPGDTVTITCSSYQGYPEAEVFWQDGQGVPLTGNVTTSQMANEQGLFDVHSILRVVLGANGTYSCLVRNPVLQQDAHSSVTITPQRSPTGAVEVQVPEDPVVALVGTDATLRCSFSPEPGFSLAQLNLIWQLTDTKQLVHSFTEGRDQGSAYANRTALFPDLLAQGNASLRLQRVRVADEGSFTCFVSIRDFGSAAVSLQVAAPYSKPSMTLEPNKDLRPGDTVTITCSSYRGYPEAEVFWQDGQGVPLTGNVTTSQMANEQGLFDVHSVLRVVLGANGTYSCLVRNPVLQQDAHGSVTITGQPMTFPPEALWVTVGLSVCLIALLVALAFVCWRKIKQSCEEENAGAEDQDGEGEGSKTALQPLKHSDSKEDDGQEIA

T2: CD30 (UniProt P28908 19-595, limits assumed)
T2 sequence (looked up): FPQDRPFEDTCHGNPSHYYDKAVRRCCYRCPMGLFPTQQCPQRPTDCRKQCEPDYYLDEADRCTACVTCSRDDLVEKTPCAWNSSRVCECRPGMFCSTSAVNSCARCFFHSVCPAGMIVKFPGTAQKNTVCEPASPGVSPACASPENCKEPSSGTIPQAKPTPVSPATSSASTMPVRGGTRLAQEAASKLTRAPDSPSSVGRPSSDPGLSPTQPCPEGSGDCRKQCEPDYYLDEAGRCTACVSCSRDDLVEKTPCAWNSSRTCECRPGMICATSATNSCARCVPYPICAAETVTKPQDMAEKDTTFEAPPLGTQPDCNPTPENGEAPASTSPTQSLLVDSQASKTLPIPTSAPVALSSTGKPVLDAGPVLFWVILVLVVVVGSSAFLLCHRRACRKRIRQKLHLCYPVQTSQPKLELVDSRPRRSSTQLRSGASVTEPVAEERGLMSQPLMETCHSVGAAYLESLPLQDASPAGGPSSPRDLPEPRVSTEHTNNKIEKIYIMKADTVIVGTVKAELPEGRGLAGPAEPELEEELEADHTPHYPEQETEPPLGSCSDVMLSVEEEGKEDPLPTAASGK


What was measured:
human B7-H3 variant 1 [1] = biological target: T1, human B7-H3 variant 1; assay: cell-based or functional assay
human B7-H3 variant 1 [2] = biological target: T1, human B7-H3 variant 1; assay: flow cytometry, M30 at 10 µg/mL on CCRF-CEM clones transfected with B7-H3 variant 1, fluorescein-labelled anti-mouse IgG
Method: Flow cytometry was used for confirming B7-H3 expression in each recovered clone. Specifically, each recovered clone was washed twice with PBS containing 5% FBS, thereafter suspended by the addition of PBS containing 5% FBS and 10 μg/mL M30, and left standing at 4° C. for 30 minutes. […] The clone was washed twice with PBS containing 5% FBS, thereafter resuspended in PBS containing 5% FBS, and detected by using a flow cytometer (FC500: Beckman Coulter, Inc.).

CD30 = biological target: T2, CD30; assay: cell-based or functional assay
CD33 = CD33 (UniProt P20138 18-364, limits assumed); assay: cell-based or functional assay
Sequence of CD33 (P20138 18-364 limits assumed): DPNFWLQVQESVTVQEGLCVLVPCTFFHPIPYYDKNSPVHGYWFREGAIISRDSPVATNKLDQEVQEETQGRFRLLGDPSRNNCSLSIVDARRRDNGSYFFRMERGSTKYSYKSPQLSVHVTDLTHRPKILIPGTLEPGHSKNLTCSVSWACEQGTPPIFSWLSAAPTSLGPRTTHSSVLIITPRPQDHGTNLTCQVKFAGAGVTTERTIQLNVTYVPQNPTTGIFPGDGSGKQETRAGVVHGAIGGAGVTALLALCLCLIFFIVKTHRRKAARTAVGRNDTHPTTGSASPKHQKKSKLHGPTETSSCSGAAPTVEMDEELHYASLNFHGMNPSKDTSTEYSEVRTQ

Row | Binder | IC50, anticellular effect (cell growth inhibition, CellTiter-Glo) on SR cells (CD30) [nM] | further results
1 | Antibody-drug conjugate (6) (antibody, human IgG1, kappa, V domains shown, drug-linker -(Succinimid-3-yl-N)-CH2CH2CH2CH2CH2-C(=O)-DGGFG-NH-CH2CH2CH2-C(=O)-(NH-DX) (exatecan) bound by thioether at reduced hinge disulfide cysteines (positions not given); average 6.2 drug molecules per antibody) VH: QVQLVQSGAEVKKPGSSVKVSCKASGYTFTNYVMHWVRQAPGQGLEWMGYINPYNDDVKYNEKFKGRVTITADESTSTAYMELSSLRSEDTAVYYCARWGYYGSPLYYFDYWGQGTLVTVSS VL: EIVLTQSPATLSLSPGERATLSCRASSRLIYMHWYQQKPGQAPRPLIYATSNLASGIPARFSGSGSGTDFTLTISSLEPEDFAVYYCQQWNSNPPTFGQGTKVEIKR | – | IC50, anticellular effect (cell growth inhibition, CellTiter-Glo) on CEM_V1_3.1_2 cells (human B7-H3 variant 1 [1]): < 0.1 nM
2 | Antibody-drug conjugate (23) (antibody, human IgG1, kappa, V domains shown, drug-linker -(Succinimid-3-yl-N)-CH2CH2CH2CH2CH2-C(=O)-DGGFG-(NH-DX) (exatecan) bound by thioether at reduced hinge disulfide cysteines (positions not given); average 6.6 drug molecules per antibody) VH: QVQLVQSGAEVKKPGSSVKVSCKASGYTFTNYVMHWVRQAPGQGLEWMGYINPYNDDVKYNEKFKGRVTITADESTSTAYMELSSLRSEDTAVYYCARWGYYGSPLYYFDYWGQGTLVTVSS VL: EIVLTQSPATLSLSPGERATLSCRASSRLIYMHWYQQKPGQAPRPLIYATSNLASGIPARFSGSGSGTDFTLTISSLEPEDFAVYYCQQWNSNPPTFGQGTKVEIKR | – | IC50, anticellular effect (cell growth inhibition, CellTiter-Glo) on CEM_V1_3.1_2 cells (human B7-H3 variant 1 [1]): < 0.1 nM
3 | M30 antibody (antibody, mouse IgG2a, kappa, V domains shown, Mouse monoclonal anti-B7-H3 antibody from hybridoma M30) VH: EVQLQQSGPELVKPGASVKMSCKASGYTFTNYVMHWVKQKPGQGLEWIGYINPYNDDVKYNEKFKGKATQTSDKSSSTAYMELSSLTSEDSAVYYCARWGYYGSPLYYFDYWGQGTTLTVSS VL: QIVLSQSPTILSASPGEKVTMTCRASSRLIYMHWYQQKPGSSPKPWIYATSNLASGVPARFSGSGSGTSYSLTISRVEAEDAATYYCQQWNSNPPTFGTGTKLELKR | – | binding result (human B7-H3 variant 1 [2]): binds
4 | Antibody-drug conjugate (7) (antibody, V domains shown, drug-linker -(Succinimid-3-yl-N)-CH2CH2CH2CH2CH2-C(=O)-DGGFG-NH-CH2CH2CH2-C(=O)-(NH-DX) (exatecan) bound by thioether at reduced hinge disulfide cysteines (positions not given); average 4.6 drug molecules per antibody) VH: QIQLQQSGPEVVKPGASVKISCKASGYTFTDYYITWVKQKPGQGLEWIGWIYPGSGNTKYNEKFKGKATLTVDTSSSTAFMQLSSLTSEDTAVYFCANYGNYWFAYWGQGTQVTVSA VL: DIVLTQSPASLAVSLGQRATISCKASQSVDFDGDSYMNWYQQKPGQPPKVLIYAASNLESGIPARFSGSGSGTDFTLNIHPVEEEDAATYYCQQSNQDPWTFGGGTKLEIKR | < 0.01 | –
5 | Antibody-drug conjugate (8) (antibody, V domains shown, drug-linker -(Succinimid-3-yl-N)-CH2CH2CH2CH2CH2-C(=O)-DGGFG-NH-CH2CH2CH2-C(=O)-(NH-DX) (exatecan) bound by thioether at reduced hinge disulfide cysteines (positions not given); average 7.9 drug molecules per antibody) VH: QIQLQQSGPEVVKPGASVKISCKASGYTFTDYYITWVKQKPGQGLEWIGWIYPGSGNTKYNEKFKGKATLTVDTSSSTAFMQLSSLTSEDTAVYFCANYGNYWFAYWGQGTQVTVSA VL: DIVLTQSPASLAVSLGQRATISCKASQSVDFDGDSYMNWYQQKPGQPPKVLIYAASNLESGIPARFSGSGSGTDFTLNIHPVEEEDAATYYCQQSNQDPWTFGGGTKLEIKR | < 0.01 | –
6 | Antibody-drug conjugate (25) (antibody, V domains shown, drug-linker -(Succinimid-3-yl-N)-CH2CH2CH2CH2CH2-C(=O)-DGGFG-(NH-DX) (exatecan) bound by thioether at reduced hinge disulfide cysteines (positions not given); average 4.8 drug molecules per antibody) VH: QIQLQQSGPEVVKPGASVKISCKASGYTFTDYYITWVKQKPGQGLEWIGWIYPGSGNTKYNEKFKGKATLTVDTSSSTAFMQLSSLTSEDTAVYFCANYGNYWFAYWGQGTQVTVSA VL: DIVLTQSPASLAVSLGQRATISCKASQSVDFDGDSYMNWYQQKPGQPPKVLIYAASNLESGIPARFSGSGSGTDFTLNIHPVEEEDAATYYCQQSNQDPWTFGGGTKLEIKR | < 0.01 | –
7 | Antibody-drug conjugate (24) (antibody, V domains shown, drug-linker -(Succinimid-3-yl-N)-CH2CH2CH2CH2CH2-C(=O)-DGGFG-(NH-DX) (exatecan) bound by thioether at reduced hinge disulfide cysteines (positions not given); average 2.9 drug molecules per antibody) VH: QIQLQQSGPEVVKPGASVKISCKASGYTFTDYYITWVKQKPGQGLEWIGWIYPGSGNTKYNEKFKGKATLTVDTSSSTAFMQLSSLTSEDTAVYFCANYGNYWFAYWGQGTQVTVSA VL: DIVLTQSPASLAVSLGQRATISCKASQSVDFDGDSYMNWYQQKPGQPPKVLIYAASNLESGIPARFSGSGSGTDFTLNIHPVEEEDAATYYCQQSNQDPWTFGGGTKLEIKR | < 0.01 | –
8 | Antibody-drug conjugate (10) (antibody, V domains shown, drug-linker -(Succinimid-3-yl-N)-CH2CH2CH2CH2CH2-C(=O)-DGGFG-NH-CH2CH2CH2-C(=O)-(NH-DX) (exatecan) bound by thioether at reduced hinge disulfide cysteines (positions not given); average 6.6 drug molecules per antibody) VH: EVQLVQSGAEVKKPGSSVKVSCKASGYTITDSNIHWVRQAPGQSLEWIGYIYPYNGGTDYNQKFKNRATLTVDNPTNTAYMELSSLRSEDTAFYYCVNGNPWLAYWGQGTLVTVSS VL: DIQLTQSPSTLSASVGDRVTITCRASQSLDNYGIRFLTWFQQKPGKAPKLLMYAASNQGSGVPSRFSGSGSGTEFTLTISSLQPDDFATYYCQQTKEVPWSFGQGTKVEVKR | – | IC50, cytotoxic effect (cell growth inhibition, CellTiter-Glo) on HL-60 cells (CD33): < 1 nM
